Experimental data as given in publication doi:10.64898/2025.12.17.694860.

Molecular target: Trypanosoma brucei enolase (Trypanosoma brucei)
Assay: SEC

stoichiometry N: 2
Substance: Trypanosoma brucei enolase (enzyme)
